The values below come from publication PMC7155755, “Binding of the Human 14-3-3 Isoforms to Distinct Sites in the Leucine-Rich Repeat Kinase 2” (Frontiers in Neuroscience, 2020).

One assay has as its target Q930R/pS935. Kind of assay: fluorescence polarisation; direct binding; dilution series of 14-3-3 isoform (at least 5 μM down to picomolar) mixed with 1 nM fluorescein-labelled peptide; 20 mM MOPS pH 7, 150 mM NaCl, 0.005% CHAPS; 384-well plates.
The next assay concerns the target pS1444. Described as above.
For assay [1], the target named is pS910/pS935. The assay is described as above.
In assay [2] the target is pS910/pS935. The assay is described as above. The source holds these as a separate data set.
A further assay concerns the target T1, R1441C/pS1444 (R1441C (stands in the printed letters)).
T1 construct: LRRK2-derived peptide of the Roc domain with the familial PD mutation R1441C, phosphorylated at S1444; source: synthetic peptide (Peps4LS GmbH)
T1 peptide: fluorescein-LFNIKACAS[pS]SPVILVGT
The assay is described as above.

The next assay deals with 14-3-3β (UniProt P31946). Kind of assay: fluorescence polarization direct binding. As to conditions: reference: unphosphorylated T2524 peptide; sites T2524. A general note: Fluorescence polarisation rises when a labelled molecule tumbles more slowly, as on binding a larger partner.
For the next assay, the target named is 14-3-3γ (UniProt P61981). Kind of assay: fluorescence polarization direct binding. As to conditions: reference: unphosphorylated T2524 peptide; sites T2524.
A further assay has as its target 14-3-3ε (UniProt P62258). Kind of assay: fluorescence polarization direct binding. As to conditions: reference: unphosphorylated T2524 peptide; sites T2524.
Another assay has as its target 14-3-3ζ (UniProt P63104). Kind of assay: fluorescence polarization direct binding. As to conditions: reference: unphosphorylated T2524 peptide; sites T2524.
The next assay concerns the target 14-3-3η (UniProt Q04917). Kind of assay: fluorescence polarization direct binding. As to conditions: reference: unphosphorylated T2524 peptide; sites T2524.
In the next assay the target is 14-3-3θ (UniProt P27348). Kind of assay: fluorescence polarization direct binding. As to conditions: reference: unphosphorylated T2524 peptide; sites T2524.
The target in a further assay is 14-3-3σ (UniProt P31947). Kind of assay: fluorescence polarization direct binding. As to conditions: reference: unphosphorylated T2524 peptide; sites T2524.
The target in assay [3] is LRRK2 pS910/pS935 peptide (Homo sapiens, UniProt Q5S007).
Assay [4] addresses T2, human 14-3-3 isoform β (recombinant, MBP tag removed) (human, UniProt P31946 1-246).
T2 construct: 14-3-3 beta, human; Expressed from pMAL2CX plasmids; also called 14-3-3β; source: E. coli BL21DE3, purified (maltose-agarose, Factor Xa, anion exchange)
T2 sequence (looked up): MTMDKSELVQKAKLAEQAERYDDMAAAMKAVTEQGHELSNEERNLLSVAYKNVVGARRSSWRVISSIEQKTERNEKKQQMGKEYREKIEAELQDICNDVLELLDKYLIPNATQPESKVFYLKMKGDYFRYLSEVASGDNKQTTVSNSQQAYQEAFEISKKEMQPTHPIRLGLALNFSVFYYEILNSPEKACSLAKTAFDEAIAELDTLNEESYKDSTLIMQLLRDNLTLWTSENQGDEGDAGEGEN
Kind of assay: fluorescence polarisation; direct binding; dilution series of 14-3-3 isoform (at least 5 μM down to picomolar) mixed with 1 nM fluorescein-labelled peptide; 20 mM MOPS pH 7, 150 mM NaCl, 0.005% CHAPS; 384-well plates. As to conditions: both partners purified.

Assay [5] addresses T3, human 14-3-3 isoform ε (recombinant, MBP tag removed) (human, UniProt P62258 1-255).
T3 construct: 14-3-3 epsilon, human; Expressed from pMAL2CX plasmids; also called 14-3-3ε; source: E. coli BL21DE3, purified (maltose-agarose, Factor Xa, anion exchange)
T3 sequence (looked up): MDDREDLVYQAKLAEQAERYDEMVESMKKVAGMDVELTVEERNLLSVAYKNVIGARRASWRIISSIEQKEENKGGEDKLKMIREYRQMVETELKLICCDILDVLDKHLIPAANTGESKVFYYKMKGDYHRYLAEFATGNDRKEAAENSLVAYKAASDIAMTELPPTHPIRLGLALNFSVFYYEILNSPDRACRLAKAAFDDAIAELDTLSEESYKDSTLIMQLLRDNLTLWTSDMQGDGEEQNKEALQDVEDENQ
Described as above. As to conditions: both partners purified.

In assay [6] the target is T4, human 14-3-3 isoform ζ (recombinant, MBP tag removed) (human, UniProt P63104 1-245).
T4 construct: 14-3-3 zeta, human; Expressed from pMAL2CX plasmids; also called 14-3-3ζ; source: E. coli BL21DE3, purified (maltose-agarose, Factor Xa, anion exchange)
T4 sequence (looked up): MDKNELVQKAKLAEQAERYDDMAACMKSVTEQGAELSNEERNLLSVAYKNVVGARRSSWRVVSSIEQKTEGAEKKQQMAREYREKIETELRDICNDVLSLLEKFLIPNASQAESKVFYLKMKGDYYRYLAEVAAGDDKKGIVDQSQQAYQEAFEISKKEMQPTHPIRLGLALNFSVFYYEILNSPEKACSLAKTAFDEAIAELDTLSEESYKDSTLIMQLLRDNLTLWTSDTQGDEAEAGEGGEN
Described as above. As to conditions: both partners purified.

Assay [7] has as its target T5, human 14-3-3 isoform η (recombinant, MBP tag removed) (human, UniProt Q04917 1-246).
T5 construct: 14-3-3 eta, human; Expressed from pMAL2CX plasmids; also called 14-3-3η; source: E. coli BL21DE3, purified (maltose-agarose, Factor Xa, anion exchange)
T5 sequence (looked up): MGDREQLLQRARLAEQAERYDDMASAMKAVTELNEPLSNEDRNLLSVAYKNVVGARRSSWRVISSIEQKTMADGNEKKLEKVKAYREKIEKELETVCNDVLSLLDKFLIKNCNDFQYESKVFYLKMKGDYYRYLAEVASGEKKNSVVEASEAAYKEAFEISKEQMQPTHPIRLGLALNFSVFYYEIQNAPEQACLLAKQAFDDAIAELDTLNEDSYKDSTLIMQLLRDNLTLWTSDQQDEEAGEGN
The description is as above. As to conditions: both partners purified.

In assay [8] the target is T6, human 14-3-3 isoform θ (recombinant, MBP tag removed) (human, UniProt P27348 1-245).
T6 construct: 14-3-3 theta, human; Expressed from pMAL2CX plasmids; also called 14-3-3θ; source: E. coli BL21DE3, purified (maltose-agarose, Factor Xa, anion exchange)
T6 sequence (looked up): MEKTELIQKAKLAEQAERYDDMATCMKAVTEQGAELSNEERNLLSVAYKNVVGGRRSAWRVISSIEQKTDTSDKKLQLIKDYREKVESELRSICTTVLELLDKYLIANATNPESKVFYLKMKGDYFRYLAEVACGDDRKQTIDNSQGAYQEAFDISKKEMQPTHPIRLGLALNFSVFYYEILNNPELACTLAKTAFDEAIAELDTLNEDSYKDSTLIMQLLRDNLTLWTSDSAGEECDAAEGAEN
The assay is described as above. As to conditions: both partners purified.

In assay [9] the target is T7, human 14-3-3 isoform σ (recombinant, MBP tag removed) (human, UniProt P31947 1-248).
T7 construct: 14-3-3 sigma, human; Expressed from pMAL2CX plasmids; also called 14-3-3σ; source: E. coli BL21DE3, purified (maltose-agarose, Factor Xa, anion exchange)
T7 sequence (looked up): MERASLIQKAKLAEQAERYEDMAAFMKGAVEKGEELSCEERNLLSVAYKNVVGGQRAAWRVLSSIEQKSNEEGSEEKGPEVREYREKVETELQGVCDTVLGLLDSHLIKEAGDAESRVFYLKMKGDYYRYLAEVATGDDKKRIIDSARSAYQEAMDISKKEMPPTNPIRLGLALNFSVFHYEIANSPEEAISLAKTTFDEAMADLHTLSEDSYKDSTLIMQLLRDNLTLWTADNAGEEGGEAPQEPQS
The description is as above. As to conditions: both partners purified.

Read-outs that look alike come from different tables or passages of the source. Square brackets hold non-standard residues; d marks the D form. Ends that are not written are not given here. fluorescein = N-terminal fluorescein label; pT = C[C@@H](OP(=O)(O)O)[C@H](N)C(=O)O

Sequence of pS910/pS935 (Q5S007 906-940): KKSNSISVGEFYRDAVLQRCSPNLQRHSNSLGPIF
Sequence of LRRK2 pS910/pS935 peptide (Q5S007 whole entry, canonical isoform): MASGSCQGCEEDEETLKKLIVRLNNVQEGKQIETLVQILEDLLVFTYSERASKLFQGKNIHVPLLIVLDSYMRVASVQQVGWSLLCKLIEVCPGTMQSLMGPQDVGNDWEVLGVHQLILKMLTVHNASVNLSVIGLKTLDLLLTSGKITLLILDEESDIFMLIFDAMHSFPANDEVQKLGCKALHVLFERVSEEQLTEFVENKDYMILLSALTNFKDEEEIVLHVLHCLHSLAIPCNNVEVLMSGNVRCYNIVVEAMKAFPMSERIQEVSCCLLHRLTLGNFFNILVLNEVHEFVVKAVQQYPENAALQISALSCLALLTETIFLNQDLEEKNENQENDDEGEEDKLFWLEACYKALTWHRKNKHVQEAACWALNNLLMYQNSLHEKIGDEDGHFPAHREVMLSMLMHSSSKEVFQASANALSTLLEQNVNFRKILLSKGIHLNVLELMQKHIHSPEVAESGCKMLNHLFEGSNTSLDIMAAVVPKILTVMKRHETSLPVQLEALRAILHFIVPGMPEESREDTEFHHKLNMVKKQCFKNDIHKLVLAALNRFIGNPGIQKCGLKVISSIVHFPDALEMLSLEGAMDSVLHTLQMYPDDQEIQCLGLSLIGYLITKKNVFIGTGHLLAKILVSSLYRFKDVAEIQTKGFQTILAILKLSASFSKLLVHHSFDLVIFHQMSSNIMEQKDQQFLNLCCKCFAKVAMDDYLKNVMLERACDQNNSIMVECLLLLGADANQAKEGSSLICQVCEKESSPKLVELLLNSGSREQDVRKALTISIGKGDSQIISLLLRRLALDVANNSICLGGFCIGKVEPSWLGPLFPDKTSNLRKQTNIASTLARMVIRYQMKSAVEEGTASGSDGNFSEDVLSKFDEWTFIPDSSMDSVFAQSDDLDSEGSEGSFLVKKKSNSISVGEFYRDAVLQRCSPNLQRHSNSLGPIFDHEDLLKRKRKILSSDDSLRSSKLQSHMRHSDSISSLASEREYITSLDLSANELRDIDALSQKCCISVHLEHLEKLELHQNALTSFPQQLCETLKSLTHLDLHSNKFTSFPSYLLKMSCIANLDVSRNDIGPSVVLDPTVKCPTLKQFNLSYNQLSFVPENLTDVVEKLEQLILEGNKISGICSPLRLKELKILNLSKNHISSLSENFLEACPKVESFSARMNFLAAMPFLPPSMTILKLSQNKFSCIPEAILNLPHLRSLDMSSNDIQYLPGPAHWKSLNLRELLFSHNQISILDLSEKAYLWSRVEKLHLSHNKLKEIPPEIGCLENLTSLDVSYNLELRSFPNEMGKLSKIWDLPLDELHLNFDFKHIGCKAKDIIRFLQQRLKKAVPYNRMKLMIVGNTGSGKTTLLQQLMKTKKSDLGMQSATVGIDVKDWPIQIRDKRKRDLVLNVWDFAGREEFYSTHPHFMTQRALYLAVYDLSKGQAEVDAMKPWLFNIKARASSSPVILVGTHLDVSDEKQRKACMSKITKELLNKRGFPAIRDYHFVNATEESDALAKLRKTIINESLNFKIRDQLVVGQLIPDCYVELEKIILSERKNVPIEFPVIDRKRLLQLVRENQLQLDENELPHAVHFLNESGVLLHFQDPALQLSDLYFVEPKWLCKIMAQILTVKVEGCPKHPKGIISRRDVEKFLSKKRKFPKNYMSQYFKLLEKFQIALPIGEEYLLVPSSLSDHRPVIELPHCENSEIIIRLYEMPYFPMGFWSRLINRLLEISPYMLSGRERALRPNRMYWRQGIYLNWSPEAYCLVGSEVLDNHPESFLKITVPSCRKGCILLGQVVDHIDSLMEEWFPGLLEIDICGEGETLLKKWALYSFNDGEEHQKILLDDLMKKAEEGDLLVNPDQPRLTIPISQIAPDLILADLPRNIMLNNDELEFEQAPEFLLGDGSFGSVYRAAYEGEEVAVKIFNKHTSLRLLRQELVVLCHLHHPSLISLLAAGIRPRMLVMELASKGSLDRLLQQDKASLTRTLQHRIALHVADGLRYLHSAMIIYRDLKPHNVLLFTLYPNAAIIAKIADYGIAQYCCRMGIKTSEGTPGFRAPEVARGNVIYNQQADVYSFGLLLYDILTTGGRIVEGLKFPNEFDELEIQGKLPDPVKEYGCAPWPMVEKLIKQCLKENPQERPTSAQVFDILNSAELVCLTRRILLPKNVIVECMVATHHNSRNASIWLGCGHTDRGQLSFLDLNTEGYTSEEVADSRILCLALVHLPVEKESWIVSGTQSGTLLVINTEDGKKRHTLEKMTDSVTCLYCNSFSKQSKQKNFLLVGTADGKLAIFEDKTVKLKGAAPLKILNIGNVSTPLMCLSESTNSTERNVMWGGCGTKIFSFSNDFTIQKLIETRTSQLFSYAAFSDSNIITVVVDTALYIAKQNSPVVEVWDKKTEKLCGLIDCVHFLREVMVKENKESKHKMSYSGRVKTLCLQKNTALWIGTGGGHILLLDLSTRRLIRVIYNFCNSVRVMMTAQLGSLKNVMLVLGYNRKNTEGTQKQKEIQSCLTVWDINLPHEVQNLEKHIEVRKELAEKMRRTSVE

Broadly, the Kd is a measure of binding affinity in units of concentration. A high value points to weaker binding. “human 14-3-3 isoform γ (recombinant, MBP tag removed) (from UniProt P61981 1-247) (natural protein)”: the Kd worked out at 11.1 nM in the assay with Q930R/pS935, 106 nM with pS1444, 3.2 nM with pS910/pS935 [1] and 4.8 nM in the assay with pS910/pS935 [2]. This molecule also had a fold decrease in affinity against pS1444 in the assay with R1441C/pS1444 of over 30 fold.
With “LRRK2 (leucine-rich repeat kinase 2) C-terminus (from UniProt Q5S007) pT2524 peptide”, the “binding against the reference” value with 14-3-3β, with 14-3-3γ, in the assay with 14-3-3ε, with 14-3-3ζ, with 14-3-3η and with 14-3-3θ was “gained” in each case. Also, in the assay with 14-3-3σ, the “binding against the reference” value is listed as “gained”.

B1: 14-3-3σ (protein)
chain: MERASLIQKAKLAEQAERYEDMAAFMKGAVEKGEELSCEERNLLSVAYKNVVGGQRAAWRVLSSIEQKSNEEGSEEKGPEVREYREKVETELQGVCDTVLGLLDSHLIKEAGDAESRVFYLKMKGDYYRYLAEVATGDDKKRIIDSARSAYQEAMDISKKEMPPTNPIRLGLALNFSVFHYEIANSPEEAISLAKTTFDEAMADLHTLSEDSYKDSTLIMQLLRDNLTLWTADNAGEEGGEAPQEPQS
modifications: pS910+pS935
In assay [3], B1 returned a Kd of 61 nM. This lies in the double-digit nanomolar range.

B2: pT2524 (peptide)
peptide: fluorescein-HIEVRKELAEKMRR[pT]SVE
notes: LRRK2-derived peptide of the very C-terminus, phosphorylated at T2524; source: synthetic peptide (Peps4LS GmbH)
Consider B2, for which the binding result in assay [4], in assay [5], in [6], in [7], in [8] and in [9] was “binds” in each case.
